Assays:
[1] = biological target: unidentified antigen on CHO PD-L1 cells bound by pertuzumab (the filing speculates hamster HER2); assay: flow cytometry, CHO PD-L1 cells; reference pertuzumab
[2] = biological target: unidentified antigen on CHO PD-L1 cells bound by pertuzumab (the filing speculates hamster HER2); assay: flow cytometry, CHO PD-L1 cells (residual binding)

- rel. EC50 (EC50 reference/EC50 sample) [1]: 1
- EC50 [2]: 1.29 nM
Substance: pertuzumab (antibody)
